IntAct's records for PubMed 23809763

B1: R-spondin-1 (Homo sapiens), Q2MKA7 (parent)
chain: MRLGLCVVALVLSWTHLTISSRGIKGKRQRRISAEGSQACAKGCELCSEVNGCLKCSPKLFILLERNDIRQVGVCLPSCPPGYFDARNPDMNKCIKCKIEHCEACFSHNFCTKCKEGLYLHKGRCYPACPEGSSAANGTMECSSPAQCEMSEWSPWGPCSKKQQLCGFRRGSEERTRRVLHAPVGDHAACSDTKETRRCTVRRVPCPEGQKRRKGGQGRRENANRNLARKESKEAGAGSRRRKGQQQQQQQGTVGPLTSAGPA
partner: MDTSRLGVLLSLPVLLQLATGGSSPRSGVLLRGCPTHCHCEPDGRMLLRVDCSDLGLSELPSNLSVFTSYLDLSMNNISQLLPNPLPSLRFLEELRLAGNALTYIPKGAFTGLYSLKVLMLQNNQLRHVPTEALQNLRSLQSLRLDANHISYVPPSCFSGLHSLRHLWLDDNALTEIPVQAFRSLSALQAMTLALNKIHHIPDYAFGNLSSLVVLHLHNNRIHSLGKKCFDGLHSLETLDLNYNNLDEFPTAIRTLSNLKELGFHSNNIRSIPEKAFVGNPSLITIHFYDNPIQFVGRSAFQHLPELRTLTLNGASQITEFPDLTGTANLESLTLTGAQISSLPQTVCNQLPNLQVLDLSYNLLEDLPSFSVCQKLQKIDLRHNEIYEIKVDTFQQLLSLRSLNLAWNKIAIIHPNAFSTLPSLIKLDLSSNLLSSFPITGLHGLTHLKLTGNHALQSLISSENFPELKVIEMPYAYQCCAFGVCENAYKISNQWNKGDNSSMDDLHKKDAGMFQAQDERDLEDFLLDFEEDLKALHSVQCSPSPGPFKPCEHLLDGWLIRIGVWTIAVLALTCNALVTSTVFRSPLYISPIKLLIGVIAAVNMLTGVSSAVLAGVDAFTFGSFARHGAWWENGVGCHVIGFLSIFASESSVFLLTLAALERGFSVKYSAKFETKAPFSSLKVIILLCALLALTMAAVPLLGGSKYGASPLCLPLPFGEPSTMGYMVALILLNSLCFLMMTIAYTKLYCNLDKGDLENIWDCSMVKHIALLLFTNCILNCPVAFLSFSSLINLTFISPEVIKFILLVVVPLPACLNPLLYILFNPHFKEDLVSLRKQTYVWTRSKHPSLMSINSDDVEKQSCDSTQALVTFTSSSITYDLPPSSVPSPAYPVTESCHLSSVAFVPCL

Variants of: B1
Conditions: with lgr5_human LGR5, O75473

Variant | effect of a mutation on the interaction
MRLGLCVVALVLSWTHLTISSRGIKGKRQRRISAEGSQACAKGCELCSEVNGCLKCSPKLFILLERNDICQVGVCLPSCPPGYFDARNPDMNKCIKCKIEHCEACFSHNFCTKCKEGLYLHKGRCYPACPEGSSAANGTMECSSPAQCEMSEWSPWGPCSKKQQLCGFRRGSEERTRRVLHAPVGDHAACSDTKETRRCTVRRVPCPEGQKRRKGGQGRRENANRNLARKESKEAGAGSRRRKGQQQQQQQGTVGPLTSAGPA [R70C] | with no effect
MRLGLCVVALVLSWTHLTISSRGIKGKRQRRISAEGSQACAKGCELCSEVNGCLKCSPKLFILLERNDIRRVGVCLPSCPPGYFDARNPDMNKCIKCKIEHCEACFSHNFCTKCKEGLYLHKGRCYPACPEGSSAANGTMECSSPAQCEMSEWSPWGPCSKKQQLCGFRRGSEERTRRVLHAPVGDHAACSDTKETRRCTVRRVPCPEGQKRRKGGQGRRENANRNLARKESKEAGAGSRRRKGQQQQQQQGTVGPLTSAGPA [Q71R] | with no effect
MRLGLCVVALVLSWTHLTISSRGIKGKRQRRISAEGSQACAKGCELCSEVNGCLKCSPKLFILLERNDIRQVGVCLPSCPPEYFDARNPDMNKCIKCKIEHCEACFSHNFCTKCKEGLYLHKGRCYPACPEGSSAANGTMECSSPAQCEMSEWSPWGPCSKKQQLCGFRRGSEERTRRVLHAPVGDHAACSDTKETRRCTVRRVPCPEGQKRRKGGQGRRENANRNLARKESKEAGAGSRRRKGQQQQQQQGTVGPLTSAGPA [G82E] | with no effect
MRLGLCVVALVLSWTHLTISSRGIKGKRQRRISAEGSQACAKGCELCSEVNGCLKCSPKLFILLERNDIRQVGVCLPSCPPGYFDARNPDMNKCIKCKIEHCEACESHNFCTKCKEGLYLHKGRCYPACPEGSSAANGTMECSSPAQCEMSEWSPWGPCSKKQQLCGFRRGSEERTRRVLHAPVGDHAACSDTKETRRCTVRRVPCPEGQKRRKGGQGRRENANRNLARKESKEAGAGSRRRKGQQQQQQQGTVGPLTSAGPA [F106E] | disrupting interaction strength
MRLGLCVVALVLSWTHLTISSRGIKGKRQRRISAEGSQACAKGCELCSEVNGCLKCSPKLFILLERNDIRQVEVCLPSCPPGYFDARNPDMNKCIKCKIEHCEACFSHNFCTKCKEGLYLHKGRCYPACPEGSSAANGTMECSSPAQCEMSEWSPWGPCSKKQQLCGFRRGSEERTRRVLHAPVGDHAACSDTKETRRCTVRRVPCPEGQKRRKGGQGRRENANRNLARKESKEAGAGSRRRKGQQQQQQQGTVGPLTSAGPA [G73E] | with no effect
MRLGLCVVALVLSWTHLTISSRGIKGKRQRRISAEGSQACAKGCELCSEVNGCLKCSPKLFILLERNDIRQVRVCLPSCPPGYFDARNPDMNKCIKCKIEHCEACFSHNFCTKCKEGLYLHKGRCYPACPEGSSAANGTMECSSPAQCEMSEWSPWGPCSKKQQLCGFRRGSEERTRRVLHAPVGDHAACSDTKETRRCTVRRVPCPEGQKRRKGGQGRRENANRNLARKESKEAGAGSRRRKGQQQQQQQGTVGPLTSAGPA [G73R] | with no effect
MRLGLCVVALVLSWTHLTISSRGIKGKRQRRISAEGSQACAKGCELCSEVNGCLKCSPKLFILLEWNDIRQVGVCLPSCPPGYFDARNPDMNKCIKCKIEHCEACFSHNFCTKCKEGLYLHKGRCYPACPEGSSAANGTMECSSPAQCEMSEWSPWGPCSKKQQLCGFRRGSEERTRRVLHAPVGDHAACSDTKETRRCTVRRVPCPEGQKRRKGGQGRRENANRNLARKESKEAGAGSRRRKGQQQQQQQGTVGPLTSAGPA [R66W] | with no effect

Second part, the variant after the results:

effect of a mutation on the interaction | Variant
disrupting interaction strength | MRLGLCVVALVLSWTHLTISSRGIKGKRQRRISAEGSQACAKGCELCSEVNGCLKCSPKLFILLERNDIRQVGVCLPSCPPGYFDARNPDMNKCIKCKIEHCEACFSHNECTKCKEGLYLHKGRCYPACPEGSSAANGTMECSSPAQCEMSEWSPWGPCSKKQQLCGFRRGSEERTRRVLHAPVGDHAACSDTKETRRCTVRRVPCPEGQKRRKGGQGRRENANRNLARKESKEAGAGSRRRKGQQQQQQQGTVGPLTSAGPA [F110E]
decreasing interaction strength | MRLGLCVVALVLSWTHLTISSRGIKGKRQRRISAEGSQACAKGCELCSEVNGCLKCSPKLFILLERNDIAQVGVCLPSCPPGYFDARNPDMNKCIKCKIEHCEACFSHNFCTKCKEGLYLHKGRCYPACPEGSSAANGTMECSSPAQCEMSEWSPWGPCSKKQQLCGFRRGSEERTRRVLHAPVGDHAACSDTKETRRCTVRRVPCPEGQKRRKGGQGRRENANRNLARKESKEAGAGSRRRKGQQQQQQQGTVGPLTSAGPA [R70A]
with no effect | MRLGLCVVALVLSWTHLTISSRGIKGKRQRRISAEGSQACAKGCELCSEVNGCLKCSPKLFILLERNDIEQVGVCLPSCPPGYFDARNPDMNKCIKCKIEHCEACFSHNFCTKCKEGLYLHKGRCYPACPEGSSAANGTMECSSPAQCEMSEWSPWGPCSKKQQLCGFRRGSEERTRRVLHAPVGDHAACSDTKETRRCTVRRVPCPEGQKRRKGGQGRRENANRNLARKESKEAGAGSRRRKGQQQQQQQGTVGPLTSAGPA [R70E]
with no effect | MRLGLCVVALVLSWTHLTISSRGIKGKRQRRISAEGSQACAKGCELCSEVNGCLKCSPKLFILLERNDIREVGVCLPSCPPGYFDARNPDMNKCIKCKIEHCEACFSHNFCTKCKEGLYLHKGRCYPACPEGSSAANGTMECSSPAQCEMSEWSPWGPCSKKQQLCGFRRGSEERTRRVLHAPVGDHAACSDTKETRRCTVRRVPCPEGQKRRKGGQGRRENANRNLARKESKEAGAGSRRRKGQQQQQQQGTVGPLTSAGPA [Q71E]
with no effect | MRLGLCVVALVLSWTHLTISSRGIKGKRQRRISAEGSQACAKGCELCSEVNGCLKCSPKLFILLEANDIRQVGVCLPSCPPGYFDARNPDMNKCIKCKIEHCEACFSHNFCTKCKEGLYLHKGRCYPACPEGSSAANGTMECSSPAQCEMSEWSPWGPCSKKQQLCGFRRGSEERTRRVLHAPVGDHAACSDTKETRRCTVRRVPCPEGQKRRKGGQGRRENANRNLARKESKEAGAGSRRRKGQQQQQQQGTVGPLTSAGPA [R66A]
